In patent publication US20200234789A1, “DESIGNED PROTEINS FOR LIGAND BINDING” (THE REGENTS OF THE UNIVERSITY OF CALIFORNIA, priority 2017, published 2020):

Experiments:
[1] = Porphyrin binding titration to determine KD (apo-PS1 titrated into (CF3)4PZn, absorbance at 423 nm); details: water-insoluble porphyrin solubilized with 1% w/v octylglucopyranoside detergent; 100 mM NaCl, 50 mM NaPi, pH 7.5; read-out: dissociation constant of binding, KD
Experimental: FIGS. 3A-3D. Biophysical characterization of apo- and holo-PS1. FIG. 3A: Electronic absorption and emission spectra of (CF3)4PZn/PS1 holo-protein and (CF3)4PZn in toluene solvent. […] FIG. 3B: Determination of KD by apo-PS1 titration into a buffer solution (100 mM NaCl, 50 mM NaPi, pH 7.5) of (CF3)4PZn with 1% w/v octyl-b-D-glucopyranoside. […] FIG. 3C: Circular dichroism (CD) spectra of apo- and holo-PS1 in 50 mM NaPi, 100 mM NaCl, pH 7.5 as a function of temperature. The transitions appear reversible based on the fact that the spectra are identical after cooling to room temperature. Units are in molar residue ellipticity. […] FIG. 3D: Pump-probe transient absorption spectra of (CF3)4PZn bound in the interior of holo-PS1 at 21° C. and 100° C. […] Inset exemplifies identical transient dynamics (primarily intersystem crossing from S1 to T1) at ΔAbs.=482 nm (scaled). […]
2 μM of (CF3)4PZn was solubilized in a 1 mL solution of 50 mM NaPi, 100 mM NaCl, pH 7.5 buffer by inclusion of 1% w/v octyl-b-D-glucopyranoside. 2 μL of a 102 uM stock of apo-PS1 (0.2 μM aliquots) was titrated into the 1 mL solution containing the porphyrin, and an electronic absorption spectrum was measured until >2.5 equivalents of protein were added. Absorbance changes at 423 nm, due to His-Zn coordination-induced spectral shifts of the porphyrin, were fit to a single-site, protein-ligand binding model.

[2] = Porphyrin binding to apo-protein, electronic absorption spectra ((CF3)4PZn loading)
Experimental: FIGS. 3A-3D. Biophysical characterization of apo- and holo-PS1. FIG. 3A: Electronic absorption and emission spectra of (CF3)4PZn/PS1 holo-protein and (CF3)4PZn in toluene solvent. […] FIG. 3B: Determination of KD by apo-PS1 titration into a buffer solution (100 mM NaCl, 50 mM NaPi, pH 7.5) of (CF3)4PZn with 1% w/v octyl-b-D-glucopyranoside. […] FIG. 3C: Circular dichroism (CD) spectra of apo- and holo-PS1 in 50 mM NaPi, 100 mM NaCl, pH 7.5 as a function of temperature. The transitions appear reversible based on the fact that the spectra are identical after cooling to room temperature. Units are in molar residue ellipticity. […] FIG. 3D: Pump-probe transient absorption spectra of (CF3)4PZn bound in the interior of holo-PS1 at 21° C. and 100° C. […] Inset exemplifies identical transient dynamics (primarily intersystem crossing from S1 to T1) at ΔAbs.=482 nm (scaled). Experimental conditions: solvent=50 mM NaPi, 100 mM NaCl, pH 7.5; excitation wavelength=600±5 nm; magic-angle polarization between pump and probe pulses; pump-probe cross-correlation of ˜250 fs.
FIG. 10. Absorption spectra of (CF3)4PZn/PS1 and (CF3)4PZn/PS2 complexes. […] Experimental conditions: buffer=100 mM NaCl, 50 mM NaPi, pH 7.5.
(§1) A 2-fold excess of the cofactor (CF3)4PZn was added from a 4 mM DMSO stock solution to a 50 mM NaPi, 100 mM NaCl, pH 7.5 buffer with apo-protein (Note that final DMSO concentrations were kept <1%.). Buffer solution of apo-PS1 protein was heated for 5 minutes at 50° C., (CF3)4PZn was then added from the DMSO stock solution, the resultant mixture was vortexed for 5 seconds, and placed back in the heat block at 50° C. for 15 minutes, with vortexing every 3 minutes. The protein/cofactor solution was then spun at 14000×g in a Amicon Ultra-0.5 mL centrifuge filter for 10 min, three times, replacing the buffer to 0.5 mL after each 10 min spin. Finally, the protein solution was spun for 4 min at 12000×g in an Amicon ultrafree-MC GV filter (UFC30GV0S). The holo-PS1 sample was then used for spectroscopic experiments immediately afterward, and diluted to an appropriate concentration if necessary. Binding of (CF3)4PFe was carried out in the same fashion, with the exception that the porphyrin was first dissolved in a stock of DMSO/CHCl3.
Electronic absorption spectra were collected using a Shimadzu UV-1700 UV-Vis spectrophotometer or Cary 5000 spectrophotometer. Steady-state emission spectra were obtained on FLS920P spectrophotometer (Edinburgh Instruments Ltd. Livingston, UK) in 1 cm quartz optical cells. The steady-state emission spectra were corrected using the correction factor generated by the manufacturer.

[3] = Porphyrin binding to apo-protein, electronic absorption spectra ((CF3)4PFe loading)
Experimental: FIG. 9. Scaled absorption spectra of (CF3)4PM/PS1 complexes, M=Zn^2+, Fe^2+. Loading of (CF3)4PFe into PS1 was ˜40-50%, likely due to the extreme insolubility of the porphyrin. The featured bands at 550-650 nm indicate that (CF3)4PFe is in a homogenous environment in the ferrous state. […] The peak at 423 nm is also indicative of a homogenous binding environment. The absorption spectra were scaled to reflect the relative extinction coefficients of the porphyrins. Buffer=50 mM NaPi, 100 mM NaCl, pH 7.5.
as §1, with “Binding of (CF3)4PFe was carried out in the same fashion, with the exception that the porphyrin was first dissolved in a stock of DMSO/CHCl3.” left out

[4] = Hydrogen-deuterium exchange measurements by 2D 15N HSQC NMR; format: physicochemical
Experimental: FIGS. 5A-5F. Apo- and holo-PS1 share similar folded cores and differ in the binding region. FIG. 5A: 2D ^1H-^15N HSQC spectra acquired for apo- and holo-PS1. Experimental conditions: 0.78 mM at 298K, 50 mM NaPi, 100 mM NaCl, pH 7.5, in 5% D2O. Resonance assignments are indicated using the one-letter amino acid code. Signals arising from side chains (Asn HD2/ND2, Gln HE2/NE2, Arg HE/NE and Trp HE1/NE1) are also labeled. The residues belonging to the binding region and folded core are color-coded as in (FIG. 5B). Non-helical residues are labeled in cyan font face. […] A dashed box surrounds 90% of the backbone resonances of apo-PS1 and is also placed at the same position in the holo-PS1 spectrum. Arrows point to resonances of residues within the binding region that change dramatically upon binding of the cofactor. FIG. 5B: Solution NMR structures of apo-PS1 and holo-PS1. […] FIG. 5C: Hydrogen-deuterium exchange protection factors (PF) measured for apo- and holo-PS1, mapped onto the centroid structure of holo-PS1. Backbone amide nitrogens of residues with determined PFs are shown as spheres. […]
For the measurements of H/D exchange rates, a series of 2D ^15N HSQC spectra were obtained on a 900 MHz Bruker Avance II spectrometer. The first spectra were recorded 9 minutes after the dilution of 100 μl of a high concentration sample in H2O (2 mM for apo and 1.2 mM for holo) into 200 μl D2O buffer. […]

B1: PS1: de novo designed porphyrin-binding four-helix bundle protein; designed sequence SEQ ID NO:1, expressed His-tag-cleaved sequence SEQ ID NO:2 (protein)
chain: SEFEKLRQTGDELVQAFQRLREIFDKGDDDSLEQVLEEIEELIQKHRQLFDNRQEAADTEAAKQGDQWVQLFQRFREAIDKGDKDSLEQLLEELEQALQKIRELAEKKN
- Kd [1]: 45 nM
- porphyrin loading ([2]; (CF3)4PZn, based on absorbance at 280 nm and 423 nm, 100 mM NaCl, 50 mM NaPi, pH 7.5): 100%
- time of complex formation ([2]; adding (CF3)4PZn from organic solution to aqueous PS1): within seconds
- stability of the (CF3)4PZn complex over time ([2]; complex with (CF3)4PZn): stable for over a year
- binding of (CF3)4PFe (ferrous iron-derivative of the porphyrin) [3]: binds
- loading of (CF3)4PFe ([3]; 50 mM NaPi, 100 mM NaCl, pH 7.5): 40-50%
- protection of the backbone surrounding the apolar core from solvent H/D exchange [4]: highly protected from exchange
